In US20110064733A1 (published 2011):
Numbering of substitutions follows the chain as printed.

B1: murine anti-CA6 monoclonal antibody DS6 (antibody, mouse IgG1, V domains shown)
VH: QAYLQQSGAELVRSGASVKMSCKASGYTFTSYNMHWVKQTPGQGLEWIGYIYPGNGATNYNQKFKGKATLTADPSSSTAYMQISSLTSEDSAVYFCARGDSVPFAYWGQGTLVTVSA
VL: QIVLTQSPAIMSASPGEKVTITCSAHSSVSFMHWFQQKPGTSPKLWIYSTSSLASGVPARFGGSGSGTSYSLTISRMEAEDAATYYCQQRSSFPLTFGAGTKLELKR
notes: Whole murine monoclonal antibody from the hybridoma (ATCC PTA-4449); They were cloned with murine IgG1 and kappa primers; also called muDS6; the DS6 antibody
B2: chimeric DS6 antibody (antibody, V domains shown)
VH: B1 VH
VL: B1 VL
notes: Expressed in CHO cells; also called chDS6
B3: humanized DS6 antibody version 1.21 (antibody, V domains shown)
VH: B1 VH with Y3Q, Q5V, L11V, R13K, S14P, K65Q
VL: B1 VL with Q1E, I10T, K18R, R76S
notes: also called huDS6v1.21; huDS6 v1.21
B4: humanized DS6 antibody version 1.01 (antibody, V domains shown)
VH: B1 VH with Y3Q, Q5V, L11V, R13K, S14P, K65Q, P74T
VL: B1 VL with Q1E, I10T, K18R, R76S
notes: also called huDS6v1.01; huDS6 v1.01

Legend:
[1] = molecular target: T1, Muc1 mucin bearing the CA6 sialoglycotope (DS6 antigen), as expressed by CA6-positive human tumour cell lines (human, UniProt P15941 24-1255, sialylated O-linked carbohydrate carrying the CA6 glycotope; sites not stated); assay: flow cytometry on HeLa cells (FIG. 28), apparent Kd, probably pM
T1 construct: whole, on cells; It stood on whole cells in flow cytometry and in cell lysates in dot blots, immunoprecipitations and western blots; also called CA6 antigen; Muc1 mucin receptor

[2] = molecular target: T1, Muc1 mucin bearing the CA6 …; assay: flow cytometry competition; competitor 2 nM biotin-muDS6, streptavidin-DTAF; called IC50 in the legend of FIG. 19
Protocol: In the first set of experiments direct binding to a CA6-expressing cell line, KB, was measured.

[3] = molecular target: T1, Muc1 mucin bearing the CA6 …; assay: cell-based or functional assay

Binder	Kd [1] [nM]	EC50 [2] [nM]	indirect cell viability assay on Caov-3 cells with anti-mouse IgG (H+L) DM1 conjugate, IC50 [3] [nM]
B1	620000	1.9	425000
B2		1.7	
B3		1.9	
B4		3	
